The results in this text go back to PMC5995894.

This data set deals with spDnmt2 (Schizosaccharomyces pombe). Put plainly: fluorescence polarization. The conditions noted are these: binding buffer, salt, pH and temperature not given in the material (methods section text missing).

As to Q34 tRNAAsp, the Kd (queuosine at position 34 (queuine enzymatically incorporated by human TGT)) turned out to be 0.67 µM.
Consider G34 tRNAAsp (unmodified), for which the Kd was 0.96 µM.

By Kd is commonly meant a measure of binding affinity in units of concentration.
